In the DeepSol protein solubility set:

Test: soluble on expression in E. coli; label from the status in PepcDB or PDB records

| Sequence | soluble on expression in E. coli |
| --- | --- |
| MVGPLNGAIGDITGAASELENIPFIGPAIGAKLQRTMRGINVAQAKVGQVVAMYGRATSAVSQVQERIGTLKEQASKASAAINRVAGKISPSLGNIVPTGSFASQATPAPEAVKPFPHLLIIQPLKPEAQPYYFNLDTAAFDELRRQTAFRWAGQERLTRSIAQQAVGLGDDKLSLKGSIFPGFKGGLKQLNTLRSMGRNLQPLSLTTGYGEVLGNWCLLSVDEEQSNLLAGGIPRKQGFSLEFVSYGDDLQNV | not soluble |
| MANGKSKNTKKDGVDKKKTSKTKKKSNLSISKSQTSVDMNEKDKSKEAKEAKELKEKKAKEEAEKKVVATPKKDASKDQAKKEEDPNKQNEPSGMDVLVKEDGKKTKMDDGYEDFGPGAGAAQ | not soluble |
| MKLPDELRQAYQKNARQFSWVFPLETEQTALAIFAAGEKAYQGERFFWQTPKKDFALVGFGYETILKGAETETHQLNNFLKKEAATRFQNMSISGTGALLFGGLPFDTEQTPTEAWGELGEGWFYLPSILFTFSGSRIYGTLNFSGSSEQEVEERWSTLVAQFDRLLATCEELPAVAETKIDKEEVAVTEWLQAVNETVAVLREDGPLKKVVLARQLAVSSPEKIRSNQVLVNLMAQQQNTYLFALEAKDTSFIGATPERLLLGTKETFATACIAGTIKTGQTPEETKTLGAQLLQDRKNTGEHQIVVERLAKELAKMTTSENSIQAPIILENRDVQHLYVPISGQRKPGISFLESVMQLHPTPALGGEPKELAVEWIRQYEPGSRGLYGAPIGWISGNDDSGEFAVALRSGVFAGQQGVLYAGCGIVADSQAELEREETKIKFQPMLRGIGGQV | not soluble |
| MAHHHHHHMRHLYGPAPGCVLLSFDFNQMELRVLAHLSGDELLIKHLSSEYDVLSAMTRHITGLSDDEQVPPHLRETVKVVVYGLFYGMGLATMKERVKILMDSAHSVPSSQRKFTADTLLRAFHQRYPAAGKFLTRARIRAFHEARCVTLTGINDLSSEKDGNRRRQHSIARILQGSSSTLFQSAMVKVHERRHDIVPNLPAAPFALVLCIHDELIYSVVEGYVDVVARKIKGIMVEQAQVFSLRVPLRVSVKVGKTFGSLEKLDVP | soluble |
| MSPVEESPEEFLARFAAHRVEVRLYPEPWGSPLLEVQTPAGFVYAMDRGAPPAPVGEARVLFHGLARKVARAQGKEGVFREGAAYRLVGTARPLEKGFYLLLARGLPVVVHWEGPMPEEAEVLLWPPLMLFRE | soluble |
| MGSDKIHHHHHHMEISMRFTDINQERERILSCPVPGYFPRKDSFLELERLIGLREVKRTLAEVAAFTLIQNRRSELRLKSDPTALHMVFKGNPGTGKTTVARILGRVFNEIGILSKGHLLEVERADLVGEYIGHTAQKTREILKRAMGGIVFIDEAYSLAQGGERDFGKEAISTLVKAMEDYRDNLVVILAGYSQEIDRFLKSNPGLRSRFPIHIDFCDYNAEELFQIALQIYQEREYELTSRCRWKLKQQLNEFVKNRHSHSGNARYVRNLAEKSIRLQALRIVDKDAPVRRDLVTIEEADLPDPRSIQA | not soluble |
| MPHVLVLNASYEPLGVVPLRRALVLVLENKAVCLEESGAFMHSATVTVPAPSVVRLKRFVRVPYRGPVPLTRRALFARDGGRCMYCGGVATSVDHVIPRSRGGQHAWDNVVASCRRCNHVKADRHLFEIGWRLRHKPAPPTGLAWRIIGTGHRDPRWLPYLQPYGADDAMARIDGISAAAALEHHHHHH | not soluble |
| SLAHIVTLNTPLREDWLAQLADVVTNPDELLHLLQIEADENLRAGQDARRLFALRVPRAFIARMEKGNPDDPLLRQVLTSRDEFIVAPGFSTDPLEEQHSVVPGLLHKYQNRALLLVKGGCAVNCRYCFRRHFPYAENQGNKRNWTVALEYIAAHPELDEIIFSGGDPLMAKDHELDWLLTQLEAIKHVKRLRIHSRLPIVIPARITDELVARFDQSRLQILLVNHINHANEVDEAFGLAMKKLRHVGVTLLNQSVLLRGVNDNARTLANLSNALFDAGVMPYYLHVLDKVQGAAHFMVTDDEARQIMRELLTLVSGYMVPRLAREIGGEPSKTPLDLQLRQC | not soluble |
| MDSLKCQVDNTVASHNVTIDKSSQDDNHIDNRRYYINIGNTKDSEEVARLQKLILTQNEAESKRTMELLALLNLKNNPEEQKKASAVGPAVDVAQNLRHLSASAGGTRRLRSCHGTYLRAYDKGLKVDMKTGAPGTWENWWVEDRKGKVVFKAIHSPGIFLSAQGNNQLTLDYHVNASEFWTPKKNDNGSWSFQSANGTWLSAHKDGRACLQPHRQAWEEFWLEWW | not soluble |
| MTEKLKNSKEVIAYIAECFPKCFTLEGEAKPLKIGIFQDLAERLNEDEKVSKTQLRAALRQYTSSWRYLHGVKPGAVRVDLDGNPCGELEEEHVEHAKATLAESKAKVQARRKEQAQKAREEGKAKAKPAANKKPQQPRRTNKPKVQKPTKPVETRALNADEITVGNAVNVNMGKGNMAATIVEINKDDVRVQLANGLQMVVKAEHLRA | soluble |
| MYMASISLKKGQKVDLTKTNPGLSKVLVGLGWDTNRYDGQNDFDLDVSIFLVGANGKVSGAEDFVFYNNPKGANGAVEHLGDNRTGEGEGDDEAIKVDLKNVPAHIERICFTITIYDGEGRSQNFGQVSNSFVRILDEEKNAELIRYDLGEDFSIETAVVVGELYRHAGDWKFNAIGSGFQGGLASLCNNFGLDVE | not soluble |
| MHSSILLLLSFASITTACPGLLNIFGGAGGGGCGGCGGGCGGGCGCAPPPPPCCGGGCGGCGRKKRSLPEKPTFVGIADSGDDVMCNTPALKKIILENIQTTASDSSKAINTVLESRQIQRFVVVCSEKPFVFTFRADAAYCGATKNGHNCHAFAM | not soluble |
| MKATVSTIDNRGNLGKVLKDVTSKDSIKGYTVAAATAGVAQGLNYNPSAMGLDAKSLQTVAVKVTADALIKTAVYGGSFKDNLASAAAGTAASIGGAYGAGKIGDLGLTEGGLAKIALHAGLGGLLSEAMGGDFRTGAIAGGANELLVGVLGDKLEHHHHHH | not soluble |
| MSLSNKSLTTGTAVDVLAGLPVKREASATGYSRTADFGAAWLDVDGNNCDTRNDILHRDLTDAVQRGGCKILSGTLNDKYSGESIHFVRGAKTSALVQVDHIVALKNAWVTGAQQLTQAQRVSFANDPLNLIAVDAHSNEQKSSGDAATWLPANKSSRCEYVARQISVKATYGLWVTPAEKSAMMDILADCSGQMAESSTFTEGHHHHHH | soluble |
| MQPPPRKVKPAQEVKLRFLEQLSILQTWQQREADLLEDIRSYSKQRAAIEREYGQALQKLAGPFLKREGHRSGEMDSRGRTVFGAWRCLLDATVAGGQTRLQASDRYRDLAGGTGRSAKEQVLRKGTENLQRAQAEVLQSVRELSRSRKLYGQRERVWALAQEKAADVQARLNRSDHGIFHSRTSLQKLSTKLSAQSAQYSQQLQAARNEYLLNLVATNAHLDHYYQEELPALLKALVSELSEHLRDPLTSLSHTELEAAEVILEHAHRGEQTTSQVSWEQDLKLFLQEPGVFSPTPPQQFQPAGTDQVCVLEWGAEGVAGKSGLEKEVQRLTSRAARDYKIQNHGHRVLQRLEQRRQQASEREAPSIEQRLQEVRESIRRAQVSQVKGAARLALLQGAGLDVERWLKPAMTQAQDEVEQERRLSEARLSQRDLSPTAEDAELSDFEECEETGELFEEPAPQALATRALPCPAHVVFRYQAGREDELTITEGEWLEVIEEGDADEWVKARNQHGEVGFVPERYLNFPDLSLPESSQDSDNPCGAEPTAFLAQALYSYTGQSAEELSFPEGALIRLLPRAQDGVDDGFWRGEFGGRVGVFPSLLVEELLGPPGPPELSDPEQMLPSPSPPSFSPPAPTSVLDGPPAPVLPGDKALDFPGFLDMMAPRLRPMRPPPPPPAKAPDPGHPDPLT | soluble |
| MSLNLETPSQENLNFMLTEITTKLKMVNVGVFENLELDSVDYNALIDIYQLIKRKSNFSPREMQLFAEELRRIRKEGHHHHHH | soluble |
| MYLQDRSPYMENSGSSNDRNSGKTEYQLTLIGALKKEIEIARRLDPEKLAAEIKKTGFSCQNCGKCCKRAFGDNRVVLTPQEIEKIQKYTDLSKLEVAGPLIPDISCPEEAGEGEEDRVAENSSIMPEIDEKKTSEPFRTPELLKEDIDPDGNIHAYGWMLRRKRNGDCVFLEKDTNRCRIYPVRPMLCSTYPFYIEGLKLYTCECEGLGVHISAEESRKLAGSLLSRYVSELEDTLAMYEKYEDFERTEKGHEIAKNNLEKGTCIYIVHDSRGITKIIDLEHHHHHH | soluble |
| GSHMKHTELRAAVLDALEKHDTGATFFDGRPAVFDEADFPAVAVYLTGAEYTGEELDSDTWQAELHIEVFLPAQVPDSELDAWMESRIYPVMSDIPALSDLITSMVASGYDYRRDDDAGLWSSADLTYVITYEM | soluble |
| MHEFSIVQSLLTLIEDYARENNAKSVTKVVVSIGVLSGVEPHLLEMAFNTFKEGTVAEKAELIMEIEKLKIKCMDCGKESEKEELNMLCPGCGSLNTQIISGQDMFLKSLELEVD | soluble |
| MSDALVWQVIRNNSAFLRTQRGIGKRFSTEKFNLKKVNSPKYSGLANKHAIDVSAAAKGVVVSTKNEKGRPAKAVTTSTLSKTPVASVRRLAKNAGFNKFNKLAQRRAAAIVRSQVKKAKVQKTDA | not soluble |
| MGSDKIHHHHHHMDKLASEYKVLIVDDVPTNVMLVQAILKKEGYTLLTCDSGTKALRIANEKHPNLILLDIMMPEMDGYEVLQHLKSNPETTDIPVIIMSALSDMQSIVKGYQLGATEYVTKPFQREELVKRVAHRYELYSIKRIKAELENTIESRDTLYSVIAHDLRSPLGSLKMMNNAILMMVDKERVGDEVYEMIQMMNKTSEEIFLLLDNLLKWAKNRLNKQHVYKQQTDINSIIDSTAEMYVPMAAQKGVKIILENLDKELVGLVDIDMLKTIIRNLISNAMKFSFEGGTITLSSRSEGDFVTVSVKDTGKGIKKEDQDKLLKQDSHFTTYGTKNEKGSGLGLMLCKDFVELHGGKLWFESEGEGKGTTFLFSMKALNQEA | not soluble |
| MSLLMIIDCHGHYTVLPKAHDEWREQQKAAFKAGQPAPPYPEISDDEIRETIEANQLRLIKERGADMTIFSPRASAMAPHVGDQSVAVPWAQACNNLIARVVDLFPETFAGVCMLPQSPEADMTSSIAELERCVNELGFIGCNLNPDPGGGHFKHPPLTDRFWYPFYEKMVELDVPAMIHVSGSCNPAMHATGAYYLAADTIAFMQLLQGNLFADFPTLRFIIPHGGGAVPYHWGRFRGLADMLKQPSLDTLLMNNVFFDTCVYHQPGINLLADVIDNKNILFGSEMVGAVRGIDPTTGHYFDDTKRYIDALDISDQERHAIFEGNTRRVFPRLDAKLKAREGHHHHHH | soluble |
| MKLERILPFSKTLIKQHITPESIVVDATCGNGNDTLFLAEQVPEGHVYGFDIQDLALENTRDKVKDFNHVSLIKDGHENIEHHINDAHKGHIDAAIFNLGYLPKGDKSIVTKPDTTIQAINSLLSLMSIEGIIVLVIYHGHSEGQIEKHALLDYLSTLDQKHAQVLQYQFLNQRNHAPFICAIEKIS | not soluble |
| MGSDKIHHHHHHMDGLLNPRESSKFIAENSRDVFIDSGGVRRVAELLLAKAAGPELRVEGWKALHELNPRAADEAAVNWVFVTDTLNFSFWSEQDEHKCVVRYRGKTYSGYWSLCAAVNRALDEGIPITSASYYATVTLDQVRNILRSDTDVSMPLVEERHRILNETGKILLEKFGGSFLNCVRESENSAQKLMHLVVESFPSYRDVTLFEGKRVSFYKRAQILVADTWSVLEGKGDGCFKDISSITMFADYRLPQVLAHLGALKYSDDLLKKLLKGEMLSYGDRQEVEIRGCSLWCVELIRDCLLELIEQKGEKPNGEINSILLDYYLWDYAHDHREDMKGIPFHRIRCIYY | not soluble |
